According to article PMC3285215, “The TAL Effector PthA4 Interacts with Nuclear Factors Involved in RNA-Dependent Processes Including a HMG Protein That Selectively Binds Poly(U) RNA”:

Key:
CsHMGΔNΔC [1] = target: T1, CsHMGΔNΔC (Citrus sinensis, UniProt G9I829 56-125); test: EMSA; conditions: protein: recombinant; label: 5' 32P
CsHMGΔC = CsHMGΔC (Citrus sinensis, UniProt G9I829 1-125); test: EMSA; conditions: protein: recombinant; label: 5' 32P
CsHMGΔN = CsHMGΔN (Citrus sinensis, UniProt G9I829 56-165); test: EMSA; conditions: protein: recombinant; label: 5' 32P
CsHMG [2] = target: T2, CsHMG (Citrus sinensis, UniProt G9I829 1-165); test: competition; 1-30x cold poly(U); conditions: protein: recombinant; tags: 6xHis; label: 5' 32P
PthA4 RD = PthA4 RD (Xanthomonas citri, UniProt A0AAI8ETU3 289-885); test: EMSA; 5 mM Mg2+; […], pH 7.5 ([…], pH 7.5, 20 min; conditions: protein: recombinant; label: 5' 32P
PthA4 = PthA4 (Xanthomonas citri, UniProt A0AAI8ETU3 1-1163); test: EMSA; 5 mM Mg2+; […], pH 7.5 ([…], pH 7.5, 20 min; conditions: protein: recombinant; tags: 6xHis; label: 5' 32P
PthA4;CsHMG = PthA4;CsHMG (Xanthomonas citri;Citrus sinensis, UniProt A0AAI8ETU3;G9I829 1-1163;1-165, |); test: EMSA; ternary complex suggested by higher MW bands; […], pH 7.5 ([…], pH 7.5, 20 min; conditions: protein: recombinant;recombinant; tags: 6xHis;6xHis; label: 5' 32P
CsHMG [3] = target: T2, CsHMG; test: EMSA; 0.5 and 1.0 ug protein; conditions: protein: recombinant; tags: 6xHis; label: 5' 32P (direct EMSA)
CsHMGΔNΔC [4] = target: T1, CsHMGΔNΔC; test: competition; 1-30x vs poly(U) probe; conditions: protein: recombinant; label: 5' 32P (direct EMSA)

T1 sequence (G9I829 entry or part of it mutant): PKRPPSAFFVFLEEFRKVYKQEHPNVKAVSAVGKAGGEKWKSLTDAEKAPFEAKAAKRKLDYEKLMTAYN
Sequence of CsHMGΔC (G9I829 entry or part of it mutant): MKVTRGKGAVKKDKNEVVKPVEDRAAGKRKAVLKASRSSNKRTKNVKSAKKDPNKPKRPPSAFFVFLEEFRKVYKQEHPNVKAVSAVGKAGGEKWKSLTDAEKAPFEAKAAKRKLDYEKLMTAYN
Sequence of CsHMGΔN (G9I829 entry or part of it mutant): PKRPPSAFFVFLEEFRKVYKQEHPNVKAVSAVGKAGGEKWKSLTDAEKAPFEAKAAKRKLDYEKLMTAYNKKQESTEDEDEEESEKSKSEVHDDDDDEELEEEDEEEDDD

| Binder | binding result (CsHMGΔNΔC [1]) | binding result (CsHMGΔC) | binding result (CsHMGΔN) | binding result (CsHMG [2]) | binding result (PthA4 RD) | binding result (PthA4) | binding result (PthA4;CsHMG) | binding result (CsHMG [3]) | binding result (CsHMGΔNΔC [4]) |
| --- | --- | --- | --- | --- | --- | --- | --- | --- | --- |
| UUUUUUUUUUUUUUUUUUUU (ssRNA) [poly(U) U-20] | binds | binds | binds | binds | binds | binds | binds |  |  |
| UUAUUAUUUAUUUAUUUAUU (ssRNA) [AU-rich RNA] |  |  |  |  |  |  |  | no binding | no binding |
